Tested on: peptide library, one residue held at a place counted from the Y acceptor
Assay: relative phosphorylation of the sub-library (ratio to the mean residue at this position); higher = residue favoured
Summary of the method: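 Purified recombinant kinases were given 50 μM ATP with γ-32P-ATP and biotinylated Tyr-centred peptide library mixtures for 90 min in 384-well plates. Peptides bound to streptavidin membranes were rinsed and quantified by phosphorimaging, and intensities were normalized per position by the sum of the 18 randomized residues (16 with the Ser/Thr-free library) and multiplied by that number. The reported values are phosphorylation relative to the mean randomized residue.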

Sequence of KIT, construct: aa544-end, human (P10721 544-976, looked up): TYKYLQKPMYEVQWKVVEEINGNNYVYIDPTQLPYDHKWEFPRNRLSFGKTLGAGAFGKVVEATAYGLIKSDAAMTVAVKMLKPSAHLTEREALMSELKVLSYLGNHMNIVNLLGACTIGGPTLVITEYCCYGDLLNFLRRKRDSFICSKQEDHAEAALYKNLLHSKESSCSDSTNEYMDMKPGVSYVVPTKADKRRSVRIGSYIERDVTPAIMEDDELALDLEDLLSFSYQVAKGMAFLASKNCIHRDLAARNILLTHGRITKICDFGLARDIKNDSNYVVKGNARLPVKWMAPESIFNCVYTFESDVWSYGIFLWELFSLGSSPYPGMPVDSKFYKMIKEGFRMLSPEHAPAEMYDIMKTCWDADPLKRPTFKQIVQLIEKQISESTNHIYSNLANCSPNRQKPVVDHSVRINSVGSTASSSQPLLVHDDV
Sequence of KDR, construct: aa789-end, human (P35968 789-1356, looked up): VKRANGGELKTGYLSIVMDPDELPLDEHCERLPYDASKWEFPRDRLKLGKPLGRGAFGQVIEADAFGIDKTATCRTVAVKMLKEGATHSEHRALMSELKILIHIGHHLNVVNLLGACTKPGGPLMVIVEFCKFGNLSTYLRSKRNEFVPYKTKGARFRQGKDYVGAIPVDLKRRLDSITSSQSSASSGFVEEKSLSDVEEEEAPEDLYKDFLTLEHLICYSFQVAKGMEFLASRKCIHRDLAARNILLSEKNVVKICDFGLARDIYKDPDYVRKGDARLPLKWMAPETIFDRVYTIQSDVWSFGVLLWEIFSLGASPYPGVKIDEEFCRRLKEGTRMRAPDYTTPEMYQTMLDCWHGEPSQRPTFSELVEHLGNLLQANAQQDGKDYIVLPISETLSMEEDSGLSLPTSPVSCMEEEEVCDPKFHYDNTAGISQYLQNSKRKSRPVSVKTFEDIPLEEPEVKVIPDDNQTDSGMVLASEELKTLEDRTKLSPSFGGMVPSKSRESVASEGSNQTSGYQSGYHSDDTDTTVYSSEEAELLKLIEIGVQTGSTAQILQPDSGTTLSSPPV
Sequence of JAK2, construct: aa809-end plus 9aa C-term extension from Gateway cloning, human (O60674 809-1132, looked up): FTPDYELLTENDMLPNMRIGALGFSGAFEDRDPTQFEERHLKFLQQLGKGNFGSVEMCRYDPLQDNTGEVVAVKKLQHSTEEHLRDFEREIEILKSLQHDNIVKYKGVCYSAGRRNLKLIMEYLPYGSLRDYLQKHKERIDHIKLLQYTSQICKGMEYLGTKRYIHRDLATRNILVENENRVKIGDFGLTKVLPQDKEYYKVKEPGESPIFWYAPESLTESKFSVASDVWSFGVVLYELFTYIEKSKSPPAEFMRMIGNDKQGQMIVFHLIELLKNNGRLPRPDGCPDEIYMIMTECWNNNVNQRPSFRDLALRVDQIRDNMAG
Sequence of JAK3, construct: aa795-end, human (P52333 795-1124, looked up): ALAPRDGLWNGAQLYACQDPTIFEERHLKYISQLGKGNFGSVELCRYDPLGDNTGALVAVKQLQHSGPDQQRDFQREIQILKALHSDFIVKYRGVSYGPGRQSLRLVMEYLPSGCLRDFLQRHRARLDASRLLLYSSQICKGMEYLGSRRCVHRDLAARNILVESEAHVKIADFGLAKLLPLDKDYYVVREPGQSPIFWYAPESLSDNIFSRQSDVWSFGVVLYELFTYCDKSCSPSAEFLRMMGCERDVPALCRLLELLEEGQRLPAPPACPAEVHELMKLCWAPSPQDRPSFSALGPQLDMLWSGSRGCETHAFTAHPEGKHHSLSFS

JAK2, construct: aa809-end plus 9aa C-term extension from Gateway cloning, human (from UniProt O60674)
relative phosphorylation
Settings	at +1	at +2	at +3	at +4	at +5	at -1	at -2	at -3	at -4	at -5
A fixed	1.07	0.945	0.889	0.971	1.11	1.13	0.982	1.02	1.07	1.08
D fixed	0.252	0.644	0.411	0.858	0.792	1.32	0.91	1	1.04	0.999
E fixed	0.45	0.78	0.33	0.934	0.764	1.18	0.98	1.01	1.26	0.926
F fixed	1.63	1.08	1.42	1.12	1.02	1.11	0.961	1.05	1.09	1.07
G fixed	0.48	0.786	0.788	1.13	1.25	0.999	1.14	1.18	1.36	1.1
H fixed	1.42	0.785	1.12	1.05	1.04	1.05	1.07	0.901	0.929	0.919
I fixed	1.97	0.961	1.94	0.87	0.922	1.26	1.04	0.953	0.963	1.06
K fixed	0.447	1.23	0.52	1.11	0.962	0.659	0.998	0.825	0.861	0.903
L fixed	1.55	1.08	1.43	0.892	0.927	1.11	1.05	1.03	1.05	1.07
M fixed	1.35	1	1.25	1.15	0.946	0.87	0.794	0.901	0.997	1.05
N fixed	0.45	0.982	0.681	0.846	0.871	0.762	0.981	1.01	0.849	1.02
P fixed	0.566	1.03	1.24	1.04	1.64	1.16	1.13	1.45	1.16	1.22
Q fixed	0.9	0.975	0.667	1.12	0.867	0.745	0.954	0.824	1.11	1.01
R fixed	0.623	1.2	0.686	1.09	0.931	0.616	0.984	0.757	0.886	0.877
S fixed	0.814	1.02	0.893	0.966	1.1	0.987	1.05	1.02	0.772	0.927
T fixed	1.09	1.07	1.17	0.909	1.06	0.989	0.98	0.976	0.716	0.824
V fixed	1.76	1.1	1.35	0.915	0.886	1.14	0.983	1.03	0.836	0.988
W fixed	1.18	1.32	1.23	1.04	0.914	0.909	1	1.05	1.05	0.952
pThr fixed	0.332	0.537	0.205	0.53	0.543	1.1	0.744	0.944	1	0.905
pTyr fixed	0.814	0.927	0.422	0.803	0.643	1.59	0.983	1.35	1.4	1.15

JAK3, construct: aa795-end, human (from UniProt P52333)
relative phosphorylation
Settings	at +1	at +2	at +3	at +4	at +5	at -1	at -2	at -3	at -4	at -5
A fixed	0.882	0.772	0.718	0.933	1.08	0.848	0.973	1.02	1.07	1.1
D fixed	0.438	0.975	0.429	0.902	0.84	3	1.02	1.3	1.08	1.09
E fixed	0.497	0.834	0.342	0.687	0.843	2.01	1.05	1.18	1.22	0.94
F fixed	2.22	1.17	1.18	1.07	0.874	0.763	0.839	0.962	1.05	1.02
G fixed	0.36	0.532	0.643	1.08	1.1	0.699	1.24	1.07	1.07	1.2
H fixed	1.44	0.984	1.19	1.01	0.967	0.968	1.03	1.11	1.04	1.12
I fixed	1.17	0.644	1.54	0.676	0.66	0.817	0.597	0.632	0.682	0.736
K fixed	0.436	0.82	0.794	1.29	1.24	0.493	0.982	0.857	0.91	1.12
L fixed	0.877	0.998	1.71	0.839	0.771	0.69	0.862	0.707	0.726	0.793
M fixed	1.06	1.21	1.5	0.883	0.852	0.593	0.86	0.72	0.847	0.828
N fixed	0.54	1.17	0.7	0.965	1.22	1.31	1.31	1.41	1.04	0.946
P fixed	0.455	0.945	0.773	1.02	1.22	0.759	1.07	1.07	1.11	1.03
Q fixed	1.04	1.02	0.883	1.22	1.13	0.874	1.31	1.15	1.11	0.971
R fixed	0.665	0.876	1.03	1.3	1.46	0.55	1.1	1.01	1.15	1.14
S fixed	0.697	0.848	0.916	1.11	1.4	0.831	1.22	1.21	1.07	1.05
T fixed	0.73	0.902	1.15	0.972	0.959	0.935	0.989	1.07	0.839	0.973
V fixed	1.65	0.807	1.2	0.819	0.716	0.842	0.671	0.72	0.7	0.77
W fixed	2.27	2.25	1.37	1.31	1.03	0.791	1.09	1.1	1.19	1.19
pThr fixed	0.626	1.2	0.391	0.528	0.682	2.23	1	1.16	1.01	0.871
pTyr fixed	1.04	0.925	0.369	0.583	0.725	2.37	1.05	1.32	1.01	0.825

KDR, construct: aa789-end, human (from UniProt P35968)
relative phosphorylation
Settings	at +1	at +2	at +3	at +4	at +5	at -1	at -2	at -3	at -4	at -5
A fixed	0.852	0.685	0.543	0.829	0.944	0.816	0.954	0.915	1.04	1
D fixed	0.301	0.599	0.314	0.665	0.745	2.25	1.1	1.21	1.04	0.987
E fixed	0.416	0.621	0.246	0.608	0.696	1.46	1.2	1.29	1.26	0.973
F fixed	1.6	1.34	2.2	1.1	1.04	0.846	0.617	0.819	0.818	0.816
G fixed	0.612	0.417	0.465	1.01	1.13	0.631	1.36	1.17	1.33	1.21
H fixed	1.37	0.86	0.523	0.95	0.978	1.37	1.12	1.02	0.975	1.03
I fixed	1.22	0.919	2.05	0.733	0.86	1.05	0.546	0.573	0.741	0.756
K fixed	0.944	1.32	0.469	1.52	1.17	0.726	1.21	1.18	1.2	1.49
L fixed	1.06	1.39	2.56	0.906	0.907	0.886	0.723	0.745	0.788	0.771
M fixed	1.17	1.06	2.1	0.996	1.04	0.654	0.645	0.699	0.826	0.857
N fixed	0.634	1.12	0.465	0.862	1.05	1.36	1.32	1.23	0.886	1.08
P fixed	0.645	0.63	0.787	1.29	1.26	0.842	1.08	1.15	1.28	1.14
Q fixed	1.27	1.01	0.561	1.02	0.916	1.07	1.19	1.09	1.12	1.01
R fixed	1.14	1.77	0.7	1.6	1.39	0.841	1.55	1.29	1.36	1.44
S fixed	0.712	0.921	0.599	0.982	1.09	0.671	1.14	1.05	0.856	0.973
T fixed	0.939	0.924	0.675	0.989	1.18	0.86	0.938	1.06	0.743	0.947
V fixed	1.79	1.02	1.65	0.841	0.733	0.962	0.637	0.633	0.756	0.768
W fixed	1.31	1.39	1.09	1.09	0.872	0.689	0.658	0.883	0.991	0.761
pThr fixed	0.636	1.09	0.307	0.54	0.602	1.64	1.14	1.41	1.1	1.25
pTyr fixed	2.12	1.83	0.405	0.526	0.731	2.89	1.99	2.27	2.12	1.45

KIT, construct: aa544-end, human (from UniProt P10721)
relative phosphorylation
Settings	at +1	at +2	at +3	at +4	at +5	at -1	at -2	at -3	at -4	at -5
A fixed	0.767	0.817	0.577	0.912	1.01	0.799	1.12	1.03	1.1	1.01
D fixed	0.38	0.893	0.392	0.969	0.604	1.62	1.26	1.51	1.33	1.22
E fixed	0.666	1.19	0.276	0.92	0.618	1.36	1.45	1.76	1.51	1.04
F fixed	1.99	1.1	2.08	1.13	1.9	1.06	0.614	0.837	0.973	0.976
G fixed	0.387	0.485	0.529	1.03	1.16	0.521	1.19	1.1	1.17	1.22
H fixed	1.82	0.971	0.859	1.14	0.933	1.39	0.967	0.973	0.913	1.04
I fixed	1.78	0.95	2.43	0.817	0.793	1.86	0.881	0.703	0.892	0.869
K fixed	0.694	0.803	0.588	1.05	0.596	0.494	0.669	0.754	0.806	1.03
L fixed	1.18	1.15	1.76	0.826	0.911	1.06	0.867	0.707	0.801	0.849
M fixed	1.17	1.02	1.42	0.903	0.949	0.834	0.763	0.764	0.865	0.848
N fixed	0.554	1.05	0.581	0.952	0.811	1.13	1.15	1.18	0.92	1.07
P fixed	0.495	0.925	1.1	0.96	1.48	0.883	1.26	1.07	1.12	1.13
Q fixed	1.12	1.05	0.591	1.09	0.773	0.87	1.15	1.01	1.05	0.891
R fixed	0.761	1.04	0.871	1.26	0.822	0.487	0.857	0.774	0.929	0.958
S fixed	0.649	0.88	0.53	0.99	0.904	0.644	1.14	1.09	0.934	0.983
T fixed	0.834	0.943	0.706	0.87	0.953	0.952	1.08	1.03	0.834	0.985
V fixed	1.65	1.02	1.65	0.868	0.776	1.37	0.909	0.756	0.775	0.797
W fixed	1.11	1.71	1.07	1.32	2.01	0.667	0.676	0.95	1.09	1.1
pThr fixed	0.919	1.81	0.344	0.573	0.504	1.43	1.17	1.69	1.35	1.26
pTyr fixed	2.18	2	0.413	1.16	0.73	4.18	1.59	1.89	1.48	1.4
